What was measured:
[1] = biological target: SARS-CoV-2 membrane protein on expressing cells (SARS-CoV-2, UniProt P0DTC5 1-222)
[2] = biological target: SARS-CoV-2 spike on live SARS-CoV-2 virus (SARS-CoV-2, UniProt P0DTC2 14-1273); experiment: cell-based or functional assay
[3] = biological target: T1, Acro SARS-CoV-2 (COVID-19) S1 protein (SARS-CoV-2, UniProt P0DTC2 16-685); experiment: SPR
T1 construct: also called SARS-CoV-2 S1

Binder | MFI Ratio [1] | EC80 [2] | Kd [3]
10-11 (VHH) VHH: EVQLVESGGGLVQPGGSLRLSCAASGRNFRRNSMGWFRQAPGKEREFVAGISWSGARTHYADSVKGRFTISADNSKNTAYLQMNSLKPEDTAVYYCARVSRRPRSPPGYYYGMDVWGQGTLVTVSS | 1.56 | – | –
10-19 (VHH) VHH: EVQLVESGGGLVQPGGSLRLSCAASGRTFRSYGMGWFRQAPGKEREFVASISRSGTTMYADSVKGRFTISADNSKNTAYLQMNSLKPEDTAVYYCARRGLLQWFGAPNSWFDPWGQGTLVTVSS | 1.54 | – | –
variant 5-32 (Fc fusion) VHH: EVQLVESGGGLVQPGGSLRLSCAASGFTPDNYAMGWFRQAPGKEREFVAALGWSGVTTYHYYADSVKGRFTISADNSKNTAYLQMNSLKPEDTAVYYCASDESDAANWGQGTLVTVSS | – | 180 µg/mL | 22.4 nM
variant 6-13 (Fc fusion) VHH: EVQLVESGGGLVQPGGSLRLSCAASGLTFNDYAMGWFRQAPGKEREFVAHIPRSTYSPYYADSVKGRFTISADNSKNTAYLQMNSLKPEDTAVYYCAFLVGPQGVDHGAFDVWGQGTLVTVSS | – | 25.7 µg/mL | 25.3 nM
10-30 (VHH) VHH: EVQLVESGGGLVQPGGSLRLSCAASGRTFSSFRFRAMGWFRQAPGKEREFVALIFSGGSTYYADSVKGRFTISADNSKNTAYLQMNSLKPEDTAVYYCAREWGRWLQRGSYWGQGTLVTVSS | 1.57 | – | –
variant 6-42 (Fc fusion) VHH: EVQLVESGGGLVQPGGSLRLSCAASGDTYGSYWMGWFRQAPGKEREFVAVITSGGSTNYADSVKGRFTISADNSKNTAYLQMNSLKPEDTAVYYCTHVQNSYYYAMDVWGQGTLVTVSS | – | 0.734 µg/mL | 10.1 nM
variant 5-63 (Fc fusion) VHH: EVQLVESGGGLVQPGGSLRLSCAASGFSLDYYDMGWFRQAPGKEREFVAALGWSGGSTDYADSVKGRFTISADNSKNTAYLQMNSLKPEDTAVYYCAAGNGGRYGIVERWGQGTLVTVSS | – | 14.2 µg/mL | 10.5 nM
10-17 (VHH) VHH: EVQLVESGGGLVQPGGSLRLSCAASGRTFSIYAMGWFRQAPGKEREFVARITRGGITKYADSVKGRFTISADNSKNTAYLQMNSLKPEDTAVYYCARGLGWLLGYYWGQGTLVTVSS | 1.59 | – | –
10-44 (VHH) VHH: EVQLVESGGGLVQPGGSLRLSCAASGRTFRRYTMGWFRQAPGKEREFVAVISWSGGSTKYADSVKGRFTISADNSKNTAYLQMNSLKPEDTAVYYCARKGRWSGMNVWGQGTLVTVSS | 1.46 | – | –
10-43 (VHH) VHH: EVQLVESGGGLVQPGGSLRLSCAASGRTFRRYHMGWFRQAPGKEREFVAAITSGGRTNYADSVKGRFTISADNSKNTAYLQMNSLKPEDTAVYYCTTDGLRYFDWFPWASAFDIWGQGTLVTVSS | 1.55 | – | –
10-51 (VHH) VHH: EVQLVESGGGLVQPGGSLRLSCAASGRFFSTRVMGWFRQAPGKEREFVARIWPGGSTYYADSVKGRFTISADNSKNTAYLQMNSLKPEDTAVYYCARDRGIFGVSRWGQGTLVTVSS | 1.47 | – | –
variant 6-24 (Fc fusion) VHH: EVQLVESGGGLVQPGGSLRLSCAASGFTLDYYAMGWFRQAPGKEREFVAAINWSGDNTHYADSVKGRFTISADNSKNTAYLQMNSLKPEDTAVYYCARAPFYCTTTKCQDNYYYMDVWGQGTLVTVSS | – | 31.4 µg/mL | 29.9 nM
10-1 (VHH) VHH: EVQLVESGGGLVQPGGSLRLSCAASGLSSPPFDDFPMGWFRQAPGKEREFVSSIYSDDGDSMYADSVKGRFTISADNSKNTAYLQMNSLKPEDTAVYYCARQTFDFWSASLGGNFWYFDLWGQGTLVTVSS | 1.08 | – | –
variant 6-91 (Fc fusion) VHH: EVQLVESGGGLVQPGGSLRLSCAASGRTFGNYAMGWFRQAPGKEREFVASISSSGVSKHYADSVKGRFTISADNSKNTAYLQMNSLKPEDTAVYYCVRFGSSWARDLDQWGQGTLVTVSS | – | 240 µg/mL | –
variant 5-8 (Fc fusion) VHH: EVQLVESGGGLVQPGGSLRLSCAASGRPFSEYTMGWFRQAPGKEREFVSSIHWGGRGTNYADSVKGRFTISADNSKNTAYLQMNSLKPEDTAVYYCAAELHSSDYTSPGAYAWGQGTLVTVSS | – | 15.8 µg/mL | –
10-56 (VHH) VHH: EVQLVESGGGLVQPGGSLRLSCAASGHTFRNYGMGWFRQAPGKEREFVAAITSSGSTNYADSVKGRFTISADNSKNTAYLQMNSLKPEDTAVYYCATVPPPRRFLEWLPRRLTYTWGQGTLVTVSS | 1.39 | – | –

Binder | MFI Ratio [1] | EC80 [2] | Kd [3]
variant 6-22 (Fc fusion) VHH: EVQLVESGGGLVQPGGSLRLSCAASGRTFSEVVMGWFRQAPGKEREFVATIHSSGSTSYADSVKGRFTISADNSKNTAYLQMNSLKPEDTAVYYCVRVTSDYSMDSWGQGTLVTVSS | – | 103 µg/mL | 25.6 nM
9-3 (VHH) VHH: EVQLVESGGGLVQPGGSLRLSCAASGRTFSRYAMGWFRQAPGKEREFVAAISRSGKSTYYADSVKGRFTISADNSKNTAYLQMNSLKPEDTAVYYCAASSVFSDLRYRKNPKWGQGTLVTVSS | 1.61 | – | –
variant 5-38 (Fc fusion) VHH: EVQLVESGGGLVQPGGSLRLSCAASGRTFSMHAMGWFRQAPGKERELVASISSQGRTNYADSVKGRFTISADNSKNTAYLQMNSLKPEDTAVYYCAAEVRNGSDYLPIDWGQGTLVTVSS | – | 1.5 µg/mL | –
variant 6-82 (Fc fusion) VHH: EVQLVESGGGLVQPGGSLRLSCAASGSSLDAYGMGWFRQAPGKEREFVAAISWGGGSIYYADSVKGRFTISADNSKNTAYLQMNSLKPEDTAVYYCARLSQGMVALDYWGQGTLVTVSS | – | 108 µg/mL | 7.1 nM
10-60 (VHH) VHH: EVQLVESGGGLVQPGGSLRLSCAASGIPASMYLGWFRQAPGKEREFVAAITSGGRTSYADSVKGRFTISADNSKNTAYLQMNSLKPEDTAVYYCAKRKKRGPLWFGGGGWGYWGQGTLVTVSS | 1.14 | – | –
10-29 (VHH) VHH: EVQLVESGGGLVQPGGSLRLSCAASGRTFTSYRMGWFRQAPGKEREFVAEISSSGGYTYYADSVKGRFTISADNSKNTAYLQMNSLKPEDTAVYYCARVGPLRFLAQRPRLRPDYWGQGTLVTVSS | 1.48 | – | –
9-2 (VHH) VHH: EVQLVESGGGLVQPGGSLRLSCAASGSFSIAAMGWFRQAPGKEREFVATINYSGGGTYYADSVKGRFTISADNSKNTAYLQMNSLKPEDTAVYYCAAVNTFDESAYAAFACYDVVWGQGTLVTVSS | 1.3 | – | –
10-2 (VHH) VHH: EVQLVESGGGLVQPGGSLRLSCAASGGTFSSYSMGWFRQAPGKEREFVSAISWIIGSGGTTNYADSVKGRFTISADNSKNTAYLQMNSLKPEDTAVYYCTAGAGDSWGQGTLVTVSS | 1.25 | – | –
variant 5-51 (Fc fusion) VHH: EVQLVESGGGLVQPGGSLRLSCAASGRPNSINWMGWFRQAPGKERQFVATITPGGNTNYADSVKGRFTISADNSKNTAYLLMNSLKPEDTAVYYCAAAAGTTWYGTLYEYDWGQGTLVTVSS | – | 388 µg/mL | 25.5 nM
10-9 (VHH) VHH: EVQLVESGGGLVQPGGSLRLSCAASGIPFRSRTMGWFRQAPGKEREFVAGITGSGRSQYYADSVKGRFTISADNSKNTAYLQMNSLKPEDTAVYYCARGARIFGSVAPWRGGNYYGMDVWGQGTLVTVSS | 1.61 | – | –
9-10 (VHH) VHH: EVQLVESGGGLVQPGGSLRLSCAASGRMFSSRSMGWFRQAPGKEREFVALINRSGGSQFYADSVKGRFTISADNSKNTAYLQMNSLKPEDTAVYYCAARRWIPPGPIWGQGTLVTVSS | 1.52 | – | –
variant 6-32 (Fc fusion) VHH: EVQLVESGGGLVQPGGSLRLSCAASGFTLDYYDMGWFRQAPGKEREFVALISWSGGSTYYADSVKGRFTISADNSKNTAYLQMNSLKPEDTAVYYCATDFYGWGTRERDAFDIWGQGTLVTVSS | – | 60.6 µg/mL | 27.2 nM
variant 6-6 (Fc fusion) VHH: EVQLVESGGGLVQPGGSLRLSCAASGTTLDYYAMGWFRQAPGKERELVAAISWSGGSTAYADSVKGRFTISADNSKNTAYLQMNSLKPEDTAVYYCAREDYYDSSGYSWGQGTLVTVSS | – | 24.4 µg/mL | 6.4 nM
9-6 (VHH) VHH: EVQLVESGGGLVQPGGSLRLSCAASGRTFSRFAMGWFRQAPGKEREFVAAIRWSGGRTVYADSVKGRFTISADNSKNTAYLQMNSLKPEDTAVYYCAIEPGTIRNWRNRVPFARGNFGWGQGTLVTVSS | 1.47 | – | –
10-5 (VHH) VHH: EVQLVESGGGLVQPGGSLRLSCAASGRSLGIYRMGWFRQAPGKEREFVAAITSGGRKNYADSVKGRFTISADNSKNTAYLQMNSLKPEDTAVYYCAKRTIFGVGRWLDPWGQGTLVTVSS | 1.59 | – | –
10-6 (VHH) VHH: EVQLVESGGGLVQPGGSLRLSCAASGTTLTFRIMGWFRQAPGKEREFVPAISSTGLASYTDSVKGRFTISADNSKNTAYLQMNSLKPEDTAVYYCSKDRAPNCFACCPNGFDVWGQGTLVTVSS | 1.08 | – | –
